# Assay results published in IntAct's records for PubMed 20062059.
# B1: GTP-binding protein RHO1 (Saccharomyces cerevisiae), P06780 (parent)
# chain: MSQQVGNSIRRKLVIVGDGACGKTCLLIVFSKGQFPEVYVPTVFENYVADVEVDGRRVELALWDTAGQEDYDRLRPLSYPDSNVVLICFSIDLPDSLENVQEKWIAEVLHFCQGVPIILVGCKVDLRNDPQTIEQLRQEGQQPVTSQEGQSVADQIGATGYYECSAKTGYGVREVFEAATRASLMGKSKTNGKAKKNTTEKKKKKCVLL
# Variants of: B1
# Conditions: with sec3_yeast SEC3, P33332
# sec3_yeast SEC3, P33332, sequence (P33332 whole entry): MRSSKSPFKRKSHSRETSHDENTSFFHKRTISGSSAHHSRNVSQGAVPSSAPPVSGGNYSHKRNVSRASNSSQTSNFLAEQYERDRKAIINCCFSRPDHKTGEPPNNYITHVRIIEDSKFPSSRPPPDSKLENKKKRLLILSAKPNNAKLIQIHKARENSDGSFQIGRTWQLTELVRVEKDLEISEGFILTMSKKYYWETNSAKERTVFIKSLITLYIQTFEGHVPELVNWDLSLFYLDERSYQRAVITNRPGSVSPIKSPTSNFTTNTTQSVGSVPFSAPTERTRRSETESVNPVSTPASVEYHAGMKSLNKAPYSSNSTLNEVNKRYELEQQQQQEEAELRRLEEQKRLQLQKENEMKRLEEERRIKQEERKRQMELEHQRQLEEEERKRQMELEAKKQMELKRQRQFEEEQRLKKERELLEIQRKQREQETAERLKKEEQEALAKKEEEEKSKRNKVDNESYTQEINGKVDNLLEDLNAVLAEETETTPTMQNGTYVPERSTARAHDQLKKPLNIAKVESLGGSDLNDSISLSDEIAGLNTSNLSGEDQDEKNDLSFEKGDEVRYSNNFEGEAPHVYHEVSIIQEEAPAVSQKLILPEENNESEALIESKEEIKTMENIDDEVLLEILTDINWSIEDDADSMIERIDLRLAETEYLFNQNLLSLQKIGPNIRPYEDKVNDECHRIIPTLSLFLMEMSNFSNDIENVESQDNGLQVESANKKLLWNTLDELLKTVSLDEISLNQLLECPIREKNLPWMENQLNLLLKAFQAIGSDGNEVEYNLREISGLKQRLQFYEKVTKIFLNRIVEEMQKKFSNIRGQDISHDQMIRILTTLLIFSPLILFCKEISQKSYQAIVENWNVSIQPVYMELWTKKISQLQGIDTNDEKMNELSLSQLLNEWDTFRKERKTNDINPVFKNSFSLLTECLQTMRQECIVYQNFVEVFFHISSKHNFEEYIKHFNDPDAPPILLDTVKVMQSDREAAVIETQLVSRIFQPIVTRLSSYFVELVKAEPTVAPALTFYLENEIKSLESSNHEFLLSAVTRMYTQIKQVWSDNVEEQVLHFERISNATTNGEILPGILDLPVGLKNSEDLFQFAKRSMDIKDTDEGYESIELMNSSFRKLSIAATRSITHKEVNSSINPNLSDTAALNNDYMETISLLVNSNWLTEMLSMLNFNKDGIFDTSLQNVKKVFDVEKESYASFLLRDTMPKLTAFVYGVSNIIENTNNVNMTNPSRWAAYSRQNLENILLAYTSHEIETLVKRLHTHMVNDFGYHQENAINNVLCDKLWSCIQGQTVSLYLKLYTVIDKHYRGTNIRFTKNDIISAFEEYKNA
row,Variant,effect of a mutation on the interaction
1,MSQQVGNSIRRKLVIVGDGACGKTCLLIVFSKGQFPEVYVPTVFENYVADVEVDGRRVELALWDTAGQEDYDALRPLSYPDSNVVLICFSIDLPDSLENVQEKWIAEVLHFCQGVPIILVGCKVDLRNDPQTIEQLRQEGQQPVTSQEGQSVADQIGATGYYECSAKTGYGVREVFEAATRASLMGKSKTNGKAKKNTTEKKKKKCVLL [R73A],disrupting interaction
2,MSQQVGNSIRRKLVIVGDGACGKTCLLIVFSKGQFPEVYVPTVFENYVADVEVDGRRVELALWDTAGQEDADRLRPLSYPDSNVVLICFSIDLPDSLENVQEKWIAEVLHFCQGVPIILVGCKVDLRNDPQTIEQLRQEGQQPVTSQEGQSVADQIGATGYYECSAKTGYGVREVFEAATRASLMGKSKTNGKAKKNTTEKKKKKCVLL [Y71A],disrupting interaction
3,MSQQVGNSIRRKLVIVGDGACGKTCLLIVFSKGQFPEVYVPTVAENYVADVEVDGRRVELALWDTAGQEDYDRLRPLSYPDSNVVLICFSIDLPDSLENVQEKWIAEVLHFCQGVPIILVGCKVDLRNDPQTIEQLRQEGQQPVTSQEGQSVADQIGATGYYECSAKTGYGVREVFEAATRASLMGKSKTNGKAKKNTTEKKKKKCVLL [F44A],disrupting interaction
4,MSQQVGNSIRRKLVIVGDGACGKTCLLIVFSKGQFPEVYVPTVFENYVADVEVDGRRVELALWDTAGAEDYDRLRPLSYPDSNVVLICFSIDLPDSLENVQEKWIAEVLHFCQGVPIILVGCKVDLRNDPQTIEQLRQEGQQPVTSQEGQSVADQIGATGYYECSAKTGYGVREVFEAATRASLMGKSKTNGKAKKNTTEKKKKKCVLL [Q68A],disrupting interaction
5,MSQQVGNSIRRKLVIVGDGACGKTCLLIVFSKGQFPEVYVPTAFENYVADVEVDGRRVELALWDTAGQEDYDRLRPLSYPDSNVVLICFSIDLPDSLENVQEKWIAEVLHFCQGVPIILVGCKVDLRNDPQTIEQLRQEGQQPVTSQEGQSVADQIGATGYYECSAKTGYGVREVFEAATRASLMGKSKTNGKAKKNTTEKKKKKCVLL [V43A],disrupting interaction
